Like-named read-outs stand apart in the source and are kept apart here.
T1: CLEC12A Q form (Homo sapiens, UniProt Q5QGZ9, K244Q)
T1 construct: transfected with full-length CLEC12A (UniProt Q5QGZ9-1) cDNAs; expressed in transfected cells; host or cells: HEK-293T
T1 sequence (Q5QGZ9 1-275 isoform Q5QGZ9-1 K254Q): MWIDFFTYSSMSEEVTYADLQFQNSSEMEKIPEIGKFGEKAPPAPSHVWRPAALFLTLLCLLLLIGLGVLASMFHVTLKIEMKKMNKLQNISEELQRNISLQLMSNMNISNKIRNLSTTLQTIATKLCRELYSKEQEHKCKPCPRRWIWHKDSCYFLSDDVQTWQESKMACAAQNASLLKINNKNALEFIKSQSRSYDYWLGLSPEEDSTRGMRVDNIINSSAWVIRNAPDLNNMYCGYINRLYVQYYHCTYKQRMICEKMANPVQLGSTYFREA

T2: CLEC12A K form (Homo sapiens, UniProt Q5QGZ9)
T2 construct: transfected with full-length CLEC12A (UniProt Q5QGZ9-1) cDNAs; host or cells: HEK-293T
T2 sequence (Q5QGZ9 1-275 isoform Q5QGZ9-1): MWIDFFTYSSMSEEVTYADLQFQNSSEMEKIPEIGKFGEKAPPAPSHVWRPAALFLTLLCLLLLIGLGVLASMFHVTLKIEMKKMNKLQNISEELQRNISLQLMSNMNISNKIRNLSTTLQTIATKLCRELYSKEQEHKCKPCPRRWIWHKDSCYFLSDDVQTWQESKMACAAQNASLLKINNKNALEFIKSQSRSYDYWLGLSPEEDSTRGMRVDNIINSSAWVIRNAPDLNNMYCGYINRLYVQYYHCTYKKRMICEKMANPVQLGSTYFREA


What was measured:
[1] = system: CLL-1 positive U937 cells; experiment: Flow cytometry binding of fusion proteins to U937 cells (FMC63-PE detection); design: species or system human; settings: FIG. 20
Protocol: The ability of an expressed biparatopic construct comprising the fusion protein containing a CD19 variant, an anti-CLL-1 scFv, and an anti-CLL-1 VHH (#357) to bind CLL-1 positive U937 cells was evaluated relative to the binding of an expressed construct containing a fusion protein comprised of a CD19 variant and an anti-CLL-1 VHH (#330) and an expressed construct containing a fusion protein comprised of a wild type CD19 and an anti-CLL-1 scFv (#186). […] Approximately 5×10^5 cells were aliquoted per sample. The cells were spun, washed with FB, and then suspended in 100 μl of the biparatopic or monospecific fusion protein dilution (supernatant or purified starting at 10 μg/ml) in FB. The cell/fusion protein mixture was incubated for 30 minutes at 4° C. and then washed 2× with FB. […] After washing 2× with FB, the cells were fixed with a final concentration of 1% PFA in PBS (Thermo Scientific) and then analyzed by flow cytometry (Accuri C6, Becton-Dickinson).
To further confirm the binding and cytotoxicity capabilities of an expressed biparatopic fusion protein comprising a CD19 variant, an anti-CLL-1 scFv, and an anti-CLL-1 VHH, a construct was generated with the same features as construct #357 but lacking the HIS tag. […] The cells were washed twice with FACS buffer, fixed with a final concentration of 1% PFA in PBS (Thermo Scientific) and then analyzed by flow cytometry. […]

CLEC12A Q form = biological target: T1, CLEC12A Q form; experiment: Flow cytometry binding to HEK-293T cells transfected with CLEC12A amino acid 254 Q version; settings: FIG. 19
Protocol: (§1) Given the unique binding properties of VHH clone 2H3 relative to the anti-CLEC12A scFv we tested the binding properties of a biparatopic fusion protein containing both the VHH clone 2H3 and an anti-CLEC12A scFv. HEK-293T cells were transfected with full-length CLEC12A (UniProt Q5QGZ9-1) cDNAs expressing the amino acid 254 “K” version of CLEC12A (GenScript) or a version with “Q” at this position generated by mutagenesis. The cells were removed with Accutase and washed with PBS, suspended in 50 μL FACS buffer (FB, PBS+1% BSA and 0.1% sodium azide) and blocked with human Fc block (Becton Dickinson) at room temperature for 10 minutes. Then, 50 μl of the purified fusion proteins #186, #330 or #357 diluted in FACS buffer (starting at 3 μg/ml with 3 fold dilutions) were added. The cell/fusion protein mixture was incubated for 30 minutes at 4° C. and then washed twice with FACS buffer. The cells were suspended in 100 μl of FACS buffer, stained with HIB19-PE (BioLegend […]), and incubated for 30 minutes at 4° C. The cells were washed twice with FACS buffer, fixed with a final concentration of 1% PFA in PBS (Thermo Scientific) and then analyzed by flow cytometry.

CLEC12A K form = biological target: T2, CLEC12A K form; experiment: Flow cytometry binding to HEK-293T cells transfected with CLEC12A amino acid 254 K version; settings: FIG. 19
Protocol: as §1

CLEC12A = experiment: ELISA binding of fusion proteins (FMC63 coat, HRP-anti-His detection); design: species or system human; settings: purified fusion protein
Protocol: The binding of the biparatopic fusion proteins to CLEC12A was also examined by ELISA. […] The plate was left to incubate overnight at 4° C. The coated plate was blocked with TBS/0.3% nonfat dry milk (NFD) for 60 minutes at RT.

Molecule	binding to U937 cells [1]	binding to the Q form of CLEC12A (CLEC12A Q form)	binding to the K form of CLEC12A (CLEC12A K form)	binding to the K form weaker than to the Q form (CLEC12A K form)	EC50 (CLEC12A; FMC63 coat, read-out: CLEC12A binding (ELISA EC50)) [nM]	EC50 (CLEC12A; Table 8, read-out: EC50 of binding by ELISA) [nM]
#440: fusion protein comprising an anti-CLEC12A VHH, an anti-CD33 scFv, and a CD19 ECD; SEQ ID NO:321 (protein) MEFGLSWVFLVALFRGVQCQVQLVQSGAEVKKPGESVKVSCKASGYTFTNYGMNWVKQAPGQGLEWMGWINTYTGEPTYADKFQGRVTMTTDTSTSTAYMEIRNLGGDDTAVYYCARWSWSDGYYVYFDYWGQGTSVTVSSGGGGSGGGGSGGGGSDIVMTQSPDSLTVSLGERTTINCKSSQSVLDSSTNKNSLAWYQQKPGQPPKLLLSWASTRESGIPDRFSGSGSGTDFTLTIDSPQPEDSATYYCQQSAHFPITFGQGTRLEIKGGGGSGGGGSGGGGSGGGGSQVQLQESGGGLVQAGGSLRLSCVASGSIRSINVMGWYRQAPGKQRELVAACASDGNTYYADSVKGRFTISRDNAEKTVYLQMNNLKPDDTAVYYCDANSRGNYYSGQGTQVTVSSTSGPGGQGAGGGGSGGGGSGGGGSGGGGSPEEPLVVKVEEGDTAALWCLKGTSDGPTQQLTWSRESPLKPFLKYSLGVPGLGVHVRPDAISVVIRNVSQQMGGFYLCQPGPPSEKAWQPGWTVNVEGSGELFRWNVSDLGGLGCGLKNRSSEGPSSPSGKLMSPKLYVWAKDRPEIWEGEPPCLPPRDSLNQSLSRDLTVAPGSTLWLSCGVPPDSVSRGPLSWTHVHPKGPKSLLSLELKDDRPARDMWVMGTSLMLPRATAQDAGKWYCHRGNLTMSFHLEITARPSRHHHHHH	capable of binding to U937 cells					
#330: fusion protein comprised of a CD19 variant and an anti-CLL-1 VHH (2H3); SEQ ID NO:305 (protein) MEFGLSWVFLVALFRGVQCQVQLQESGGGLVQAGGSLRLSCVASGSIRSINVMGWYRQAPGKQRELVAACASDGNTYYADSVKGRFTISRDNAEKTVYLQMNNLKPDDTAVYYCDANSRGNYYSGQGTQVTVSSTSGPGGQGAGGGGSGGGGSGGGGSGGGGSPEEPLVVKVEEGDTAALWCLKGTSDGPTQQLTWSRESPLKPFLKYSLGVPGLGVHVRPDAISVVIRNVSQQMGGFYLCQPGPPSEKAWQPGWTVNVEGSGELFRWNVSDLGGLGCGLKNRSSEGPSSPSGKLMSPKLYVWAKDRPEIWEGEPPCLPPRDSLNQSLSRDLTVAPGSTLWLSCGVPPDSVSRGPLSWTHVHPKGPKSLLSLELKDDRPARDMWVMGTSLMLPRATAQDAGKWYCHRGNLTMSFHLEITARPSRHHHHHH		binds very well	very weakly	greater than 10,000 fold	0.013	0.01
